Key:
purified protein [1] = substrate: CCCCCCCC(=O)Oc1ccc([N+](=O)[O-])cc1; experiment: purified protein; type: biochemical, Pleurotus sapidus; conditions: apparent constant, esterase assay: potassium phosphate pH 7.0, 0.5% v/v Triton X-100, 30 °C
purified protein [2] = substrate: CCCC(=O)Oc1ccc([N+](=O)[O-])cc1; experiment: purified protein; type: biochemical, Pleurotus sapidus; conditions: apparent constant, esterase assay: potassium phosphate pH 7.0, 0.5% v/v Triton X-100, 30 °C

B1: PSA_Lip (Pleurotus sapidus) (protein)
chain: AVLPRDAPNGVHLAVDPKCGVAGGRFGDVNIGLKPLTSYEHIVAFGDSWTDGGAHNGEPLPPPVLTPPNPRAGGRASNGPVWVEKLASAAGATLLDFAEIGAVTDKNIWPSSLLPTTASSANDFVGQAHNYINQRNGFDPETTLYTIFLGVGDFDLSQQTGTDNLYTVAGAIVYTILELTSYPTYAKNIIVVDNYGRGIYETPSGDAFKEGIYAGLNTLHTRYGTSVGFVDLKTLWDGVLGSSPGYEAFGYTSKAACLPSSTSTSGACANPESTFYWLPGIPSAATHGLIADYVEKVLTTC
notes: no tag told; semi-native gel band ~118 kDa
Km (purified protein [1]): 330 µM | Vmax (purified protein [1]): 122 µM/min | kcat (purified protein [1]): 2.19 s⁻¹ | kcat/Km (purified protein [1]): 6560 M⁻¹ s⁻¹ | Km (purified protein [2]): 1220 µM | Vmax (purified protein [2]): 109 µM/min | kcat (purified protein [2]): 1.95 s⁻¹ | kcat/Km (purified protein [2]): 1610 M⁻¹ s⁻¹

Source: PMC11372007, “Characterization of a GDS(L)-like hydrolase from Pleurotus sapidus with an unusual SGNH motif” (AMB Express, 2024)
